Residues, ends and D or L forms follow the SMILES beside them.
Tests used:
[1] = target: T1, N-myristoylglycylpeptide synthetase (N-myristoyl transferase) (Saccharomyces cerevisiae, UniProt P14743); assay: Assay for N-myristoylglycylpeptide synthetase activity, crude membrane fractions from yeast; type: biochemical; conditions: for activity as substrate for myristoylglycylpeptide synthetase: result in words
T1 construct: using crude membrane fractions from yeast with changes as indicated; endogenous in cells; host or cells: S. cerevisiae strain JR153 (protease-deficient), crude membrane pellet of the cell lysate
T1 sequence (P14743 1-455): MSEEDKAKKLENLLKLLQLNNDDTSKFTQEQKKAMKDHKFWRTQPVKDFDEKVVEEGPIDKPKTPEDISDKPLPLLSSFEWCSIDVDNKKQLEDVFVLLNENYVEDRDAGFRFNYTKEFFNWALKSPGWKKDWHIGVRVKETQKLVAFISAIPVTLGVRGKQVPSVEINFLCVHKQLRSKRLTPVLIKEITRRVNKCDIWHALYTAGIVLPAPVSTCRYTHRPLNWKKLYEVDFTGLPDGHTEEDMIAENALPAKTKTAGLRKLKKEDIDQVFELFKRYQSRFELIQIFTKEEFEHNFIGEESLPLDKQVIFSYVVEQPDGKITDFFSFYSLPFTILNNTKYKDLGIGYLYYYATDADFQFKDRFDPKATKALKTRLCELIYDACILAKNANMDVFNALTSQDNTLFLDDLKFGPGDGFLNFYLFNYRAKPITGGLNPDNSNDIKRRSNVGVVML
Method: The synthetic octapeptide […]was used to identify a unique enzymatic activity which transfers myristic acid to the amino terminal glycine of this and other peptides. […] The enzyme activity was determined in an in vitro assay which measures the transfer of [^3 H]-myristic acid to the acceptor peptide. The transfer reaction is dependent on adenosine triphosphate (ATP) and coenzyme A (CoA). The enzymatic product was then identified by high performance liquid chromatography (HPLC) by co-elution with a chemically synthesized myristoyl peptide standard. […] Both contained M-myristoyl glycine.
Preparation of yeast extract for the assay of N-myristoylglycylpeptide synthetase activity. Yeast cultures were grown as described above to O.D. 660 nm of 1 to 3. Cells from 40 ml of culture were collected by centrifugation at 4° C. at 7600×g for 10 minutes. The supernatant was decanted, the cell pellet was resuspended by pipetting into 1 ml of cold 10 mM Tris, pH 7.4, transferred to a 1.5 ml conical polypropylene centrifuge tube, and the cells were then repelleted at 4° C. at 7600×g for 10 minutes. Cells were resuspended in 400 μl of cold assay lysis buffer (10 mM Tris, pH 7.4, 1 mM dithiothreitol,0.1 mM ethylene glycol-bis(β-aminoethyl ether) N,N,N',N'-tetraacetic acid (EGTA), 10 μg/ml Aprotinin) by pipetting. Approximately 400 μl of 0.5 mm glass beads were added to the resuspended cells, and the cells were lysed by vortexing as described above for lysis of radioactively labeled cells. After allowing the beads to settle, the lysate was collected and cellular debris was removed by centrifugation at 4° C. at 1000×g for 10 minutes. The supernatant was then centrifuged at 4° C. at 45,000 rpm for 30 minutes in a Beckman 75 Ti rotor. The supernatant was removed, and the crude membrane pellet was resuspended by pipetting into 400 μl of cold assay lysis buffer. Aliquots of the three cellular fractions were either assayed immediately or stored at -60° C. The activity associated with crude membranes was stable at -60° C. for at least 3 months. Protein was determined by the method of Peterson, Anal. Biochem. 83, 346-356 (1977).
Assay for N-myristoylglycylpeptide synthetase activity. [^3 H]Fatty acyl CoA was synthesized enzymatically and added to the incubation as follows. […] Typically, 40% to 50% of the [^3 H]fatty acid was converted to its CoA ester by this procedure as measured by determining the radioactivity remaining in the reaction after acidification with 6 N HCl to pH 2.0 and extraction 6 times with 5 volumes of heptane, a modification of the method of Hosaka et al., Meth. […]

[2] = substrate: C[C@H](NC(=O)[C@H](C)NC(=O)[C@H](CC(N)=O)NC(=O)CN)C(=O)N[C@@H](CO)C(N)=O; assay: Peptide substrate specificity (Km, Vmax) of partially purified yeast myristoylating enzyme; type: biochemical, S. cerevisiae strain JR153; conditions: other: peptide as acyl acceptor, 1 μCi [3H]-myristic acid per tube, 30.0 °C
Method: (§1) Assay for N-myristoylglycylpeptide synthetase activity. [^3 H]Fatty acyl CoA was synthesized enzymatically and added to the incubation as follows. The acyl CoA synthetase reaction consisted of (per one assay tube): 0.5 μCi of [^3 H]myristic acid; 25 μl of 2× assay buffer (20 mM Tris, pH 7.4, 2 mM dithiothreitol, 10 mM MgCl2, 0.2 mM EGTA); 5 μl of 50 mM ATP in distilled water, adjusted to pH 7.0 with NaOH; 2.5 μl of 20 mM lithium CoA in distilled water; 15 μl of 1mU/μl of Pseudomonas acyl CoA synthetase (Sigma) in 50 mM N-2-hydroxyethylpiperazine-N'-2-ethane sulfonic acid, pH 7.3; 2.5 μl of distilled water. The reaction was allowed to proceed for 20 minutes at 30° C. Typically, 40% to 50% of the [^3 H]fatty acid was converted to its CoA ester by this procedure as measured by determining the radioactivity remaining in the reaction after acidification with 6 N HCl to pH 2.0 and extraction 6 times with 5 volumes of heptane, a modification of the method of Hosaka et al., Meth. […] The assay was initiated by the addition of 10 μl of yeast cell extract (typically 50 μg of protein) per tube, followed by incubation at 30° C. for 10 min. The assay was terminated by the addition of 110 μl of methanol and 10 μl of 100% trichloracetic acid (w/v) per tube, followed by cooling ten minutes on ice. Precipitated protein was removed by centrifugation at 8000×g for 3 minutes in a tabletop Eppendorf centrifuge. […] One minute fractions were collected and the radioactivity in each fraction determined by liquid scintillation counting. [^3 H]-Myristoyl-[sequence]eluted at 24 minutes, while [^3 H]palmitoyl-[sequence]eluted at 30 minutes.
(§2) The peptide substrate specificity of the enzyme was tested under the assay conditions described in Example 2 but using 1 μCi of [^3 H]-myristic acid per assay tube. The yeast enzyme used in this example was partially purified from a crude homogenate of the cultured yeast cells by fractionation with 51-70% (NH4)2 SO4 followed by ion exchange column chromatography with DEAE-Sepharose® CL-6B (Pharmacia) and affinity chromatography with CoA-agarose affinity matrix (Pharmacia).

[3] = substrate: C[C@H](NC(=O)[C@H](C)NC(=O)[C@H](C)NC(=O)[C@H](CO)NC(=O)CN)C(=O)N[C@@H](C)C(=O)N[C@@H](CCCNC(=N)N)C(=O)N[C@@H](CCCNC(=N)N)C(N)=O; assay: as above; type: biochemical, S. cerevisiae strain JR153; conditions: other: peptide as acyl acceptor, 1 μCi [3H]-myristic acid per tube, 30.0 °C
Method: as §1, §2

[4] = substrate: C[C@H](NC(=O)[C@H](C)NC(=O)[C@H](C)NC(=O)[C@H](C)NC(=O)[C@H](CC(N)=O)NC(=O)CN)C(N)=O; assay: as above; type: biochemical, S. cerevisiae strain JR153; conditions: other: peptide as acyl acceptor, 1 μCi [3H]-myristic acid per tube, 30.0 °C
Method: as §1, §2

[5] = substrate: C[C@H](NC(=O)[C@H](C)NC(=O)[C@H](CCC(=O)O)NC(=O)[C@H](CC(N)=O)NC(=O)CN)C(=O)N[C@@H](C)C(=O)N[C@@H](CCCNC(=N)N)C(=O)N[C@@H](CCCNC(=N)N)C(N)=O; assay: as above; type: biochemical, S. cerevisiae strain JR153; conditions: other: peptide as acyl acceptor, 1 μCi [3H]-myristic acid per tube, 30.0 °C
Method: as §1, §2

[6] = substrate: C[C@H](NC(=O)[C@H](C)NC(=O)[C@H](Cc1ccccc1)NC(=O)[C@H](CC(N)=O)NC(=O)CN)C(=O)N[C@@H](C)C(=O)N[C@@H](CCCNC(=N)N)C(=O)N[C@@H](CCCNC(=N)N)C(N)=O; assay: as above; type: biochemical, S. cerevisiae strain JR153; conditions: other: peptide as acyl acceptor, 1 μCi [3H]-myristic acid per tube, 30.0 °C
Method: as §1, §2

[7] = substrate: CC(C)C[C@H](NC(=O)[C@@H]1CCCN1C(=O)[C@H](Cc1ccc(O)cc1)NC(=O)[C@H](CO)NC(=O)[C@H](C)NC(=O)[C@H](CCC(=O)O)NC(=O)[C@H](CC(N)=O)NC(=O)CN)C(N)=O; assay: as above; type: biochemical, S. cerevisiae strain JR153; conditions: other: peptide as acyl acceptor, 1 μCi [3H]-myristic acid per tube, 30.0 °C
Method: as §1, §2

[8] = substrate: C[C@H](NC(=O)[C@H](C)NC(=O)[C@H](C)NC(=O)[C@H](CCC(N)=O)NC(=O)CN)C(=O)N[C@@H](C)C(=O)N[C@@H](CCCNC(=N)N)C(=O)N[C@@H](CCCNC(=N)N)C(N)=O; assay: as above; type: biochemical, S. cerevisiae strain JR153; conditions: other: peptide as acyl acceptor, 1 μCi [3H]-myristic acid per tube, 30.0 °C
Method: as §1, §2

[9] = substrate: C[C@H](NC(=O)[C@H](C)NC(=O)[C@H](CCCNC(=N)N)NC(=O)[C@H](CC(N)=O)NC(=O)CN)C(=O)N[C@@H](C)C(=O)N[C@@H](CCCNC(=N)N)C(=O)N[C@@H](CCCNC(=N)N)C(N)=O; assay: as above; type: biochemical, S. cerevisiae strain JR153; conditions: other: peptide as acyl acceptor, 1 μCi [3H]-myristic acid per tube, 30.0 °C
Method: as §1, §2

[10] = substrate: C[C@H](NC(=O)CN)C(=O)N[C@@H](CCC(N)=O)C(=O)N[C@@H](C)C(=O)N[C@@H](C)C(=O)N[C@@H](C)C(=O)N[C@@H](CCCNC(=N)N)C(=O)N[C@@H](CCCNC(=N)N)C(N)=O; assay: as above; type: biochemical, S. cerevisiae strain JR153; conditions: other: peptide as acyl acceptor, 1 μCi [3H]-myristic acid per tube, 30.0 °C
Method: as §1, §2

## NCC(=O)N[C@@H](CC(N)=O)C(N)=O [GN, Gly-Asn] (H-Gly-Asn-NH2)
[1]
  activity as substrate for myristoylglycylpeptide synthetase: inactive

## N=C(N)NCCC[C@H](NC(=O)[C@@H]1CCCN1C(=O)CN)C(=O)N1CCC[C@H]1C(N)=O [GPRP, Gly-Pro-Arg-Pro] (H-GPRP-NH2)
[1]
  activity as substrate for myristoylglycylpeptide synthetase: inactive

## GSSKSPKDPS
[1]; Test 3: 1 mM test peptide added as competitor, 18 μM GlyAsnAlaAlaAlaAlaArgArg substrate, control 26.7
  Rate of Myristoylpeptide Synthesis: 27.4 DPM × 10^3 /10 min
[1]
  activity as substrate for myristoylglycylpeptide synthetase: inactive

B1: Yeast Myristoylating Enzyme (Saccharomyces cerevisiae S288C) (protein)
chain: T1 sequence (P14743 1-455)
notes: partially purified from a crude homogenate of the cultured yeast cells; endogenous in cells; host or cells: S. cerevisiae strain JR153
[2]
  Km: 900 µM
[3]
  Km: 1700 µM
[4]
  Km: 1300 µM
[5]
  Km: 1800 µM
[6]
  Km: 60 µM
[7]
  Km: 2300 µM
[8]
  Km: 70 µM
[9]
  Km: 400 µM
[10]
  Km: 1400 µM

Source: US4740588A, “Novel substrate peptides” (Washington University, priority 1986, dated 1988)
